Assay results published in patent publication US20080081903A1, “METHOD FOR SCREENING TRANSCRIPTIONAL COREGULATORY PROTEINS OF TRANSCRIPTION FACTORS, AND ANDROGEN RECEPTOR TRANSCRIPTIONAL COREGULATORY PROTEINS AS TARGETS FOR ANDROGEN RECEPTOR-DEPENDENT DISEASES” (NEW YORK UNIVERSITY, priority 2001, published 2008).

T1: androgen receptor N-terminus (AR18-500) (Rattus norvegicus, UniProt P15207)
T1 construct: receptor residues 18 through 500 (using the rat androgen receptor number scheme); expressed in transfected cells; host or cells: Saccharomyces cerevisiae EGY188
T1 sequence (P15207 18-500): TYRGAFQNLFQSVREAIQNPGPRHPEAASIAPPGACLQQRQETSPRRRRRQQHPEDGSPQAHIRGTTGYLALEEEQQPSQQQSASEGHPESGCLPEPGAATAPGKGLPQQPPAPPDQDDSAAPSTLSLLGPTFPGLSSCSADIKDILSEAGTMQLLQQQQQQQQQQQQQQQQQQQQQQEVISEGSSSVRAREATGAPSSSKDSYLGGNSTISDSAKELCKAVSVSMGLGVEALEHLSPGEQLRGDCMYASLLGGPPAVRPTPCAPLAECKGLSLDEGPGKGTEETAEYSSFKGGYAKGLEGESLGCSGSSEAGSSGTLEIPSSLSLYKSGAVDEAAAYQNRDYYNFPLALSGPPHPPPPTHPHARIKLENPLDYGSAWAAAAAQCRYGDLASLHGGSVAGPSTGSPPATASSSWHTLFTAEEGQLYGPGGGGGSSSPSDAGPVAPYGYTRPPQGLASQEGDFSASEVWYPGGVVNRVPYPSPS

T2: androgen receptor (AR) N-terminus (18-500) (Rattus norvegicus, UniProt P15207)
T2 construct: receptor residues 18 through 500 (using the rat androgen receptor number scheme); expressed in transfected cells; host or cells: Saccharomyces cerevisiae EGY188
T2 sequence (P15207 18-500): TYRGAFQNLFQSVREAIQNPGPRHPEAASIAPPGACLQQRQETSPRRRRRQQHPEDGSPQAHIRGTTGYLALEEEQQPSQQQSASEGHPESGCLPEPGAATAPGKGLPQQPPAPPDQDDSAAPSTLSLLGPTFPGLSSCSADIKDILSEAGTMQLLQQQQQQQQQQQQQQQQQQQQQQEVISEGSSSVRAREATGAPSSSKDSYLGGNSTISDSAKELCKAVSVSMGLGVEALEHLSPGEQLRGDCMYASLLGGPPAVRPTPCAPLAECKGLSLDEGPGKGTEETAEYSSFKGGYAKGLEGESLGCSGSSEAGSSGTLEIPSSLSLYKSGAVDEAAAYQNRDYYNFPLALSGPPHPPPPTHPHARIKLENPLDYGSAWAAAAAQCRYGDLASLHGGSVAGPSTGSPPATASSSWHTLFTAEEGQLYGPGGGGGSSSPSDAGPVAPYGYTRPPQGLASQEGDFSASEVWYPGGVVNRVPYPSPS

T3: androgen receptor ligand-binding domain (579-901) (Rattus norvegicus, UniProt P15207)
T3 construct: expressed in transfected cells; host or cells: yeast (modified two-hybrid assay)
T3 sequence (P15207 579-901): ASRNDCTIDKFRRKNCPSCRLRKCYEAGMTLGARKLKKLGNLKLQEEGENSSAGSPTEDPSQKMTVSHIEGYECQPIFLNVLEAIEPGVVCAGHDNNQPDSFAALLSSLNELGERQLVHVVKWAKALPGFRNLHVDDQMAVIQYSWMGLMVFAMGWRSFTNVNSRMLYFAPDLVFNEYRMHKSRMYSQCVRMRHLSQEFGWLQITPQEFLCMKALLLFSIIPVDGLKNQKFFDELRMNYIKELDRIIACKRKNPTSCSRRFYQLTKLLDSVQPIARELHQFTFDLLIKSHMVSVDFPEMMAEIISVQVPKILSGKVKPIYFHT


Columns and labels:
[1] = biological target: T1, androgen receptor N-terminus (AR18-500); assay: Modified yeast two-hybrid, quantitative liquid beta-galactosidase assay; format: binding; conditions: LexA-ART fusions vs AR18-500; twelve hour incubation in galactose-containing media
Protocol: (§1) The modified yeast two hybrid assay is described in Hittelman et al., 1999. EGY188 was transformed by the lithium acetate method with (i) pJG4-5:AR18-500, (ii) pEG202:LNCaP cell cDNA library and (iii) pJK103, a β-galactosidase reporter gene with a single LexA operator. Potential interacting proteins were selected by plating the cDNA library expressing transformants onto galactose plates lacking leucine and containing X-gal.
Yeast were grown in selective liquid media containing 2% glucose for approximately 12 hours, pelleted, washed once with sterile H2O, normalized according to cell number and resuspended to an optical density (OD600) of 0.15 in 2% galactose/1% raffinose. β-galactosidase assays were performed 12 hours later as described previously (Garabedian et al., 1992).
Out of approximately one million library transformants, eight clones were isolated that interact with the androgen receptor N-terminus. There protein factors were termed ARTs, for Androgen Receptor Trapped, by the present inventors. The eight ART clones were sequenced and were subjected to a database search using the BLAST program. A quantitative liquid beta-galactosidase assay was used to measure the relative strength of interaction between the androgen receptor N-terminus and the ARTs using the yeast two-hybrid system. The levels of expression of the ARTs in yeast were similar, as determined by immunoblotting using an antibody to the LexA DNA-binding domain that is common to all of the ARTs.
ARTs expressed as fusion proteins with the LexA DNA binding domain were analyzed for their ability to interact with AR18-500. The relative strength of interaction was determined by a quantitative liquid beta-galactosidase assay after a twelve hour incubation in galactose-containing media at 30EC. The LexA vector alone gives 1 unit of activity.

[2] = biological target: T2, androgen receptor (AR) N-terminus (18-500); assay: Modified yeast two-hybrid, qualitative plate beta-galactosidase assay; format: binding; conditions: AR N-terminus, AR LBD, Sp1A, Sp1B, CREB, TAFII130, GR AF1, SRC-1
Description: as §1
To analyze the specificity of ART interaction, the capacity of the strongest androgen receptor N-terminus-interacting factors to associate with a panel of transcriptional regulatory proteins in the modified yeast two-hybrid assay was examined. ART-5, ART-27, and ART-37 were tested for interaction with Sp1A (Sp183-262), Sp1B (Sp1263-524) the cyclic AMP response element binding protein (CREB3-296), TBP-associated factor 130 (TAFII130270-700), the glucocorticoid receptor AF1 (GR107-237), and the steroid receptor coactivator-1 (SRC-1374-800).
The strength of interaction was determined by a qualitative plate beta-galactosidase assay after a 24 hour incubation on galactose X-gal plates at 301 C.
ART-27 derivatives containing amino acids 1-45, 1-67, 1-127, 46-157, 68-157, 127-157, 1-157, and 1-45/127-157 were expressed as fusion proteins with LexA. These derivatives were tested for their ability to interact with the androgen receptor N-terminus (AR18-500). The strength of interaction was determined by a qualitative plate beta-galactosidase assay after a 24 hour incubation on galactose X-gal plates at 301 C.

[3] = biological target: T3, androgen receptor ligand-binding domain (579-901); assay: Modified yeast two-hybrid specificity panel; conditions: absence or presence of hormone

Row | Molecule | relative strength of interaction with androgen receptor N-terminus [1] | specificity of interaction among panel of transcriptional regulatory factors [2] | interaction with androgen receptor ligand binding domain [3]
1 | ART-6: Androgen Receptor Trapped protein, SEQ ID NO:8, an EST (EFGTRLKPYVSYLAPESEETPLTAAQLFSKPLAPCHRKGLQG; Human) | Intermediate strength | – | –
2 | ART-9: corresponds to ZNF160, a zinc finger containing protein of unknown function | Weak | – | –

Other lines, results leading:

Row | relative strength of interaction with androgen receptor N-terminus [1] | specificity of interaction among panel of transcriptional regulatory factors [2] | interaction with androgen receptor ligand binding domain [3] | Molecule
3 | Weak | – | – | ART-2: Androgen Receptor Trapped protein, SEQ ID NO:10, present in the EST database (EFGTRIHCPHNPRPTRRSTDHSISPSIDPHLQISHQQPTNHHPTMTNQTNLKTNDNHTQH; Human)
4 | strongest | relatively promiscuous | No interaction | ART-37: Androgen Receptor Trapped protein, SEQ ID NO:6, unknown function, represented in EST database (protein, Human) EFGTRARFTRGKSALLERALARPRTEVSLSAFALLSPSWYSTARAVFSVAELQSRLAALGRQVGARVLDALVAREKGARRETKVLGALLFVKGAVWKALFGKEADKLEQANDDARTFYIIEREPLINTYISVPKENSTLNCASFTAGIVEAVLTHSGFPAKVTAHWHKGTTLMIKFEEAVIARDRLEGR
